Measurements published in doi:10.1101/2020.07.09.195545.
Read-outs that look alike come from different tables or passages of the source.

B1: GTAC-consensus 30 bp (dsDNA)
DNA 1: GTCGCCGTACCGAGATCCGTACAGAGATCG
DNA 2: CGATCTCTGTACGGATCTCGGTACGGCGAC
B2: mutated GTAC-consensus 30 bp (shuffled core) (dsDNA)
DNA 1: GTCGCCACTGCGAGATCCACTGAGAGATCG
DNA 2: CGATCTCTCAGTGGATCTCGCAGTGGCGAC

Key:
rLCRF-SBP [1] = target: T1, rLCRF-SBP (Chlamydomonas reinhardtii, UniProt A0A2K3E5K7 866-1032); test: EMSA
rLCRF-SBP [2] = target: T1, rLCRF-SBP; test: EMSA; remark: listed apart in the source

Row | Binder | binding result (rLCRF-SBP [1]) | binding result (rLCRF-SBP [2])
1 | B1 | binds | 
2 | B2 |  | no binding
